Data reported in PMC3596498.

Biological target: SciP (Caulobacter crescentus)

B1: C. crescentus Lon (enzyme)
chain: MSELRTLPVLPLRDIVVFPHMVVPLFVGRDKSVRALEEVMRGDKQILLVTQKNSADDDPAPGDIFEVGVLATVLQLLKLPDGTVKVLVEGKARAAVVSFTDQESYYEAQIGEVSEDDGAGPEAEALSRAVVEQFENYVKLNKKVPPEALASIPQIAEPGKLADSIAAHLSVKIGDKQNLLEIFDVVKRLEKVFALMEGEISVLQVEKKIRSRVKRQMEKTQREYYLNEQMKAIQRELGDPDDARDELIDLEKRIKKTKLSKEARTKAESELKKLRNMSPMSAESTVVRNYLDWLLSIPWGKAKTKKIDLVESEGILDADHYGLEKVKERILEYLAVQARTNSLKGPILCLVGPPGVGKTSLGKSIAKATGREFVRMSLGGVRDEAEIRGHRRTYIGSMPGKVVQSMKKAKTTNAFVLLDEIDKMGSDYRGDPASALLEVLDPSQNSTFGDHYLEVDYDLSQVMFVTTANSLNMPQPLLDRMEIIRIPGYTEDEKLEIAKRHILPKLAKDHGLKPAEFIVPDKAIRDLIRYYTREAGVRSLERELGALARKTVRDLAREKVASITIDDERLAKYAGVKKYRYGETDEVDQVGIVTGLAWTEFGGDILTIEAVKMPGKGRMQITGNLKDVMKESIAAANSYVRSRALQFGIKPPVFEKTDVHIHVPDGATPKDGPSAGIAMALAMVSVLTGIPIRKDIAMTGEITLRGRVTAIGGLKEKLLAALRSGVKTVLIPQENEKDLADVPQTVKDGLEIIPVSTVDEVLKHALTGPLTPVEWNEAEEPITTSAKKDDGDSDAMLTH
**Q.** With B1 as the binder, how does the half-life of purified SciP (0.5 µM) degraded by purified Lon (0.5 µM) in vitro read?
**A.** 12 min
